Source: PMC10248553 (The Journal of Biological Chemistry, 2023)
Where no end group is shown, it is not given here.

Columns and labels:
RSK2 (44–367) = RSK2 (44–367) (human, UniProt P51812 44-367); assay: ITC
RSK2 (46–346) = RSK2 (46–346) (human, UniProt P51812 46-346); assay: crystal structure

binding result (RSK2 (44–367)) | binding result (RSK2 (46–346)) | Kd (RSK2 (44–367)) [µM] | Binder
binds | binds | – | Ac-STIHNEAELGDDDVFTTATDSSSNSSQKRE [SPRED2 (131–160) peptide]
– | – | ~9 | SPRED2 (104–181) (domain or fragment) SPADARAFDRGVRKAIEDLIEGSTTSSSTIHNEAELGDDDVFTTATDSSSNSSQKREQPTRTISSPTSCEHRRIYTLG
– | – | 36 | Ac-GDDDVFTTATDS [SPRED2 (140–151) peptide]
binds | – | – | SPRED2 (11–181) (domain or fragment) SYIVRVKAVVMTRDDSSGGWFPQEGGGISRVGVCKVMHPEGNGRSGFLIHGERQKDKLVVLECYVRKDLVYTKANPTFHHWKVDNRKFGLTFQSPADARAFDRGVRKAIEDLIEGSTTSSSTIHNEAELGDDDVFTTATDSSSNSSQKREQPTRTISSPTSCEHRRIYTLG
– | – | 20 | Ac-ELGDDDVFTTATDSSS [SPRED2 (138–153) peptide]
